Test: yeast display, Sf9 membrane polyspecificity reagent, FACS + sequencing; frameworks hold sequencing errors
Summary of the method: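 Galactose-induced (36–48 hours) yeast carrying a synthetic nanobody display library were exposed to 10% biotinylated, detergent-solubilized Sf9 membrane reagent at 4 °C for 1 hour. FACS followed streptavidin microbead enrichment, using low and high (top ~1%) gates for expression (anti-HA) and reagent binding (streptavidin). Colony PCR, MiSeq 2 × 250 sequencing and CDR-length filtering followed. Labels for polyreactivity reflect the gate of origin.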

| Sequence | polyreactivity (PSR sort gate) |
| --- | --- |
| QVQLVESGGGLVQAGGRLRLSCAASGSTFSLNTMGWYRQAPGKERELFAAIRWRSGSTYYADSVKGRFTISRDNAKNTVYLHKNRLKPEDNAVYYCAVTARVTFLLRDGGRAEFDYWGQGTQVTVSS | low polyreactivity |
| QVQLVESGGGLVQEGGSLRLTCAASGSTFSDYAMGWYRQAPGKERELVAAISKRGGRTYYADSVKGRFTISRDNEKNTVYLQMNSLKPEDTAVYDCAADLPNAKWYGYDYWGQGTQVTVSS | high polyreactivity |
| QVQRVESGGGLVQAGGSLRLSCAASGGIVSAYAMGWYRQAPGKEREFVASISRRGGSTYYADSVKGRFTISRDNAKNTVYFQMNSLKREDTAVSYCNARKYFEKSREYWGQGTQVTVSS | high polyreactivity |
| QVQLVESGGGLVQAGGSLRLSCAASGSTFGRYVMGWYRQAPGKERELVAAISKNAGSTYYADSVKGRFTISRDNAKNTVYLQMNSLKPEDTAVYYCAADWRTKGYDSLGQGTQVTVSS | high polyreactivity |
| HVQLVESGGGLVQAGGSLRLSCAASGFTVYRYTLGWYRQAPGKERELVAAITWSGGNTYYADSVKGRFTISRDNAKNTVYLQMNSLKPEDTAVYYCAAYKPYSKSNYRGQGTQVTVSS | high polyreactivity |
| QVQLVESGGGLVKAGGSLRLSCAASGRIFKIYAMGWYRQAPGKERELVAAISGRGGSTYYADSVKGRFTISRDNAKNTVYLQLNSLKPEDTAVYYCAAVGYGFSAYSTYDYWGQGTQVTVSS | high polyreactivity |
| QVQLVESVGGLVQAGGRLRLSCAASGITFYSYTMGWYRQAPGKERELVAAISDNGGRTFYADSVKGRFTISRDNAKNTVYLQMNSLKPEDTAVYYCAASRRRAVDYWGQGTQVTVSS | low polyreactivity |
| QVQLVESGGGLVQAGGSLRLSCAASGFTFGGYAMGWYRQAPGKERELVAAISQSGGRTYYADSVKGRFTISRDHAMNTVDLQMISLKPEDTAVYYCAKPSTTYYQRGDYWGQGTQVTVSS | high polyreactivity |
| QVQVVESGGALVQEGGSLRISCAASGSIFAIYVLGWSRQAPGKERELVAAITGSGGSTYYADSVKGRFTISRDNAKITVYVQMNSQKPEDTAVYYCAARVLRVRTLTTTWGQGTQVTVSS | high polyreactivity |
| QVQLVESGGGLVQAGGSLRLSCAASGGIFGSYAMGWYRQAPGKERELVAAISWTGGSTYYADSVKGRFTISRDTAKNTVYLQMNSLKREDTAVYYCNADTYRRAQLRFNSWGQGTQVTVSS | low polyreactivity |
| QVQLEESGGGLVQAGGRLRLTCAASGRTFFGYPMGWYRQAPGKERELVAAITSSGGRTYYADSVKGRFTISRDNPKNTDYLQMNSLKPEDTAVYYCAARRYRLSTPEFNYWGQGTQVTVSS | high polyreactivity |
| QVQLVESGGGLVQAGGSLRLSCAASGRIFYFYAMGWYRQAPGKERELVAAISTSGGSTYYPDSVKGRFTISRDNAKNTVYLQMNSLKQEDTAVYYCAARFRYYGSEYDYWGQGTQVTVSS | low polyreactivity |
| QGQLVETGGGLGQAGGSLRLSCAASGRIFPTNAMGWSRPAPGKERELVAAIPVSGGSTFYADSVKGRFTISRDNAKNTVYLQLNSLKPDDTAVDDCAVDDRASVGSRLDHWGQGTQVTVSS | low polyreactivity |
| QVQLVESGGGLVQAGGSLRLSCAASGSIFSYYAMGWYRQAPGKERELVAAISSRGDGRTYYADSVKGRFTISRDNAKNTVYLQMNSLKPEDTAVYYCAAESSHYRLRDRDYWGQGTQVTVSS | high polyreactivity |
| QVQLVESGGGLVQAVCSLRLSCAASGIIFVYYVMGWYRQAPGKERELVASIDGSGGSTNYADSVKGRFTISRDNAKNTVYLQMNSLKPEDTAVYYCAASGRYDYDYWGQGTQVTVSS | low polyreactivity |
| QVQLVESGGGLVQAGGSLRLSCAASGRIFGIYAMGWYRQAPGKERELVAAINSGDSTYADSVKGRFTISRDNAKNTVYLQMNSLKPEDTAVYYCAAEESTSSWSINDYWGQGTQVTVSS | low polyreactivity |
| QVQLVESGGGLVQAGGSLRLSCAASGRTIDPNAMGWYRQAPGKERELVAAITRTGVRTYYADSVKGRFTISRDNAKNTVYLQMNSLKPEDTAVYYCNRYGARSNDYWGQGTQVTVSS | low polyreactivity |
| QVQLVESGGGLVQAGGSLRLSCAASGSTFYYYAMGWYRQAPGKEREFVAAITWSGGSTYYADSVKGRFTISRDNAKNTVYLQMNSLKQEDTGVYYCAKDQRYYYYGGGDYWGQGTQLTVSS | low polyreactivity |
| QVQIVESGGGLVQAGGSLRLSCAASGSILYYYAMGWYRQAPGKERELVATITSGGTTNYADSVKGRFTISRDNAKNTFYLQMNRLKPEDTAVYYCATEEVYGQGNYWGQGTQVTVSS | low polyreactivity |
| QVQHVESGGGLVQAGGSLRLSCAASGRIFDLYAMGWYRQAPGKERELVAAITSGSTYYADSVKGRFTISRDNAKNTVYLQMNSLKPEDTAVYYCAADLSYWRGGHSRNYWGQGTQVTVSS | low polyreactivity |
| QVQLVESGGGLVQAGGSLRLSCAASGRLFWYNAMGWYRQAPGKERELVARITRGTRTYYADSVKGRFTISRDNAKNTVSLQMNSLKPEDTAVYYCRLQLSYTPHYDYWGQGTQVTVSS | high polyreactivity |
| QVQLVESGGGLVQAGGSLRLSCAASGSTFARYAMGWSRQAPGKERELVAAISDSSGSTYYADSVKGRFTISRDNAKNTVYLQMNSLKPEDTAVYYCRYYFGSGYYYWGQGTLVTVSS | high polyreactivity |

| Sequence | polyreactivity (PSR sort gate) |
| --- | --- |
| QVQLVESGGGLVQAGGSLRLSCAASGSIFKYYAMAWYRQSPGNERELVAAISSGGRTYYADSVKGRFTISRDNAKNTVYLQMNSLKPEDTAVYYCNRVGTYHSYDYWGQGTQVTVSS | high polyreactivity |
| QVQLVESGGGLVQAGGSLGLSCAASGFTFGHYAMGWYRPAPGKERELVAAISIDGGRTYYADSVKGRFTISRDNAKKTVYLQMNSLKPEDTAVYYCAVPGWVYYTSDYDYWGQGTQVTVSS | high polyreactivity |
| QVQLVESGGGLVQAGGSLRLSCSASGITFGANTMGWYRQAPGKERELVAAITISGGITHYADSVKGRFTISRDHAKNTVYLQMNSLKPEDTAVYYCAAGAYWRLYPYRQRNGGRMYYWGQGTQVTVSS | low polyreactivity |
| QVQLVESGGGLVQAGGSLRLSCAASGITFAFYAMGWYRQAPGKERELVAAISWSGTRTYYADSVKGRFTISRDNAKNTVYLQMNSLKPEDTAVYYCAADFQAGDKLYDYWGQGTQVTVSS | low polyreactivity |
| PVQLVESGGGLVQEGGSLRLICAASGRTFYGYAMGCYRPAPGKEREFVAAINSSGGTTYYADSVKGRCTISRDNAKNTVYRAMNSVKPEDTAFSYCAAVYSRIRRWPGYNAYDYWGHGTQVTVSS | high polyreactivity |
| QVQLVESGGGLVQAGGSLRLICAASGSTFSSNAMGWYRQAPGKERELVAAISRSGVTTYYADSVKGRFTISRDNAKNTVYLQKHSLKPEDTAVYYCAAQPYSRRYGRYRGFQYKYEYWGQGTQVTVSS | low polyreactivity |
| QVQLVESGGGLVQAGGSLRLSCAASGRIFGQNAMGWYRQAPGKERELVADITGSGGRTYYADSVKGRFTISRDNAKNTVYFQMNSLKPEDTAVYYCAVRVTSYYRTMVYWGQVTQVTVSS | low polyreactivity |
| QVQLVESGGGLVQAGGSLRLSCAASGSIFEYNDMGSYRQAPGKERELVAAITTGGRTSYADSVKGRFTISRDNAKYTVYLQMNSLKPEDTAVYYCNKDHSSYGASGYDYWGQGTQVTVSS | low polyreactivity |
| QVQLVESGGGLVQAGGSLRLSCASSGRTFYQNAMGWYRQAPGKESEFVAAITGGTGSTHYADSVKGRFTISRDNAKNTVYLQMNSLKPEDTAVYYCATRYLFGFSRYDYWGQGTQVTVSS | low polyreactivity |
| QVQLVESGGGLVQAGGSLRLSCAASGFTFDYNAMGWSRQAPGKERELVAAISYSDDSTYYADSVKGRFTISRDNAKNTVYLQMNSLKPEETAVYYCAAYFGAYGYDYWGQGSQVTVSS | low polyreactivity |
| QVQLVESGGGLVQAGGSLRLSCAASGFIFGGNAMGWYRQAPGKVRELVAAITARSGSTYYADSVKGRFTISRDNAKNTVYLQMNSLKPEDTAVYYCAKGSLGSTRYYYWGQGTQVTVSS | low polyreactivity |
| QVQLVESGGGLVQSGGSLRLSCAASGGTFRYNAMGRYRQAPGKERELVAAITSVGITNYADSVKGRFTISRDNAKNTVYLQMNSLNPEDTAVYYCAKRYYRYGARSWYYPYDYWGQGTQVTVSS | high polyreactivity |
| QVQLVDSGGGLVQAGGSLRLSCAASGSTVAYYAMGLYRQPTVKERELVAAITRGGSTYYADSVKGRFTISRDNAMNTVYLHLNSLKPEDTAVYYCSAEFVVQYYVYGYTLGYDYWGQGTQVTVSS | high polyreactivity |
| QVQLVESGGGLVQAGGSLRLSCAASGSSGYFYALGWSRPAPGKERELVADMDWSGDSTYYADSVKGRFTISRDNAKTTVYLQMNSLKPEDTAVYYCNAAYDYYSPSYTYDYWGQGTQVTVSS | low polyreactivity |
| QVQLVESGGGLVQAGGSLRLSCPASGYIFYYNAMGWYRQAPGKERELVAAITSDDSTYYADSVKGRFTISRDNANNTVYLQMNSLKQEDTAVYYCNSVRYGHWYDYWGQGTQVTVSS | low polyreactivity |
| QVQLVESGGGLVQAGGSLRLSCAASGFTSRYYAMGWYRQAPGKERELVAAISSSGGRTYYADSVKGRFTISRDNAKNTVYLQMNSLKPEDTAVYYCNTGIHARYGGLYGYWGQGTQVTVSS | high polyreactivity |
| QVQLVESGGGLVQAGGSLRLSCAASGFIFTGNVMGWYRQAPGKEREFVAAISRSGGNTYYADSVKGRFTISRDKAKNTVYLQMNSLKPEDTAVYYCAVPKHFVVSYDYWGQGTQVTVSS | high polyreactivity |
| QVQLVESWGGLVQSGGSLRLISAASGRTYYYYVMGCYRQAPGKERDLVATINSGASTYYADSVKGRFTISRDNAKNTVYLQMNSLNPEDTAVYYCAACVLRRIAGVRYRYGFWGQGTQVTVSS | high polyreactivity |
| QDQLVESGGGLVQAGGSLRLSCAGSGSILDGNAMLWYRQAPGKERELVAGISGDSGSTYYADSVKGRFTISRDNAKNTVYLQMNSLKPEDTAVDYCAVTWGARTDQWPLRVFVGHDYWGQGTQLTVSS | low polyreactivity |
| HVQLVESGAGLVQAAGSLRLSCAASGRPLDSNAMGGYRQAPGKDRELVAAITYSGGSTYYADSVKGRFTISRDNAKNTVYLQMNSLKPEDTAVYYCAKVGRLYRVGGYDYWGQGTQVTVSS | low polyreactivity |
| QVQLVESGGGLVQAGGSLRLSCAASGIILAHYAMGWYRQAPGKERELVAGISRSGTRTYYADSVKGRFTISRDNAKNTVYLQMNSLKPEDTAVYYCNKDAYTYWYFEMGYWGQGTQVTVSS | high polyreactivity |

— the nanobody polyreactivity screen of Harvey et al. (2022)
